{
  "source": "paper PMC3222833",
  "about": "(Journal of medicinal chemistry, 2011)",
  "key": {"[1]": {"molecular_target": "T1, recombinant human GCPII (rhGCPII) (Homo sapiens, UniProt Q04609)", "T1 sequence (Q04609 44-750)": "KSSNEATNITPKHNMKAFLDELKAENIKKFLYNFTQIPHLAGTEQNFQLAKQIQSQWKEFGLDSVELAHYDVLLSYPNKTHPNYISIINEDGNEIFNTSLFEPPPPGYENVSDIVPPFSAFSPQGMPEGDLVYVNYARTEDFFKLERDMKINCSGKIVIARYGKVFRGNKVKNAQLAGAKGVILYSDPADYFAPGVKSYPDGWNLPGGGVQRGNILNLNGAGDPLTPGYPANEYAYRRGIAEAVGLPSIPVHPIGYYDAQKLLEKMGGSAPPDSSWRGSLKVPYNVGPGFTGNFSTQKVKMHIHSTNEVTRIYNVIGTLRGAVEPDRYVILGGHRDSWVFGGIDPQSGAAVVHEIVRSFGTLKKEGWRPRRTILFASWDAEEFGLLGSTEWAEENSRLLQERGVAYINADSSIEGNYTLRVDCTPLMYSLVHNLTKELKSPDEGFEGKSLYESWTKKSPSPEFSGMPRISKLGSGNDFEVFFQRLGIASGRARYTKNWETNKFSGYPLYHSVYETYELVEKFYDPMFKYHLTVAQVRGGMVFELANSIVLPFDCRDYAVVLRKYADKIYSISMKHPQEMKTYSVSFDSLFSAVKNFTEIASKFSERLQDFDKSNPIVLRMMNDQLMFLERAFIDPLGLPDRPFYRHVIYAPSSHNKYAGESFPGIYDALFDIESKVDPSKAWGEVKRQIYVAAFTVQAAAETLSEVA", "assay": "Saturation kinetics of dipeptide hydrolysis by wild-type rhGCPII", "type": "biochemical", "conditions": "ratio of catalytic efficiency"}, "[2]": {"molecular_target": "rhGCPII(K699S) mutant (Homo sapiens, UniProt Q04609, K699S)", "sequence (Q04609 44-750 K699S)": "as the sequence (Q04609 44-750) above, with K656S counted along it", "assay": "Saturation kinetics of substrate hydrolysis by mutated GCPII", "type": "biochemical", "conditions": "kinetic assay"}, "[3]": {"tested_on": "CC(=O)N[C@@H](CC(=O)O)C(=O)N[C@@H](C)C(=O)O", "assay": "Saturation kinetics of dipeptide hydrolysis by wild-type rhGCPII", "type": "biochemical, human", "conditions": "other: wild-type rhGCPII, Table 1; 37.0 °C"}, "[4]": {"tested_on": "CCCCCC(NC(=O)[C@H](CC(=O)O)NC(C)=O)C(=O)O", "assay": "Saturation kinetics of dipeptide hydrolysis by wild-type rhGCPII", "type": "biochemical, human", "conditions": "other: wild-type rhGCPII, Table 1; 37.0 °C"}, "[5]": {"tested_on": "CCCCCCC(NC(=O)[C@H](CC(=O)O)NC(C)=O)C(=O)O", "assay": "Saturation kinetics of dipeptide hydrolysis by wild-type rhGCPII", "type": "biochemical, human", "conditions": "other: wild-type rhGCPII, Table 1; 37.0 °C"}, "[6]": {"tested_on": "CCCCCCCC(NC(=O)[C@H](CC(=O)O)NC(C)=O)C(=O)O", "assay": "Saturation kinetics of dipeptide hydrolysis by wild-type rhGCPII", "type": "biochemical, human", "conditions": "37.0 °C"}, "[7]": {"tested_on": "CCCC[C@H](NC(=O)[C@H](CC(=O)O)NC(C)=O)C(=O)O", "assay": "Saturation kinetics of dipeptide hydrolysis by wild-type rhGCPII", "type": "biochemical, human", "conditions": "other: wild-type rhGCPII, Table 1; 37.0 °C"}, "[8]": {"tested_on": "CCC[C@H](NC(=O)[C@H](CC(=O)O)NC(C)=O)C(=O)O", "assay": "Saturation kinetics of dipeptide hydrolysis by wild-type rhGCPII", "type": "biochemical, human", "conditions": "other: wild-type rhGCPII, Table 1; 37.0 °C"}, "[9]": {"tested_on": "CC[C@H](NC(=O)[C@H](CC(=O)O)NC(C)=O)C(=O)O", "assay": "Saturation kinetics of dipeptide hydrolysis by wild-type rhGCPII", "type": "biochemical, human", "conditions": "other: wild-type rhGCPII, Table 1; 37.0 °C"}, "[10]": {"tested_on": "CSCC[C@H](NC(=O)[C@H](CC(=O)O)NC(C)=O)C(=O)O", "assay": "Saturation kinetics of dipeptide hydrolysis by wild-type rhGCPII", "type": "biochemical, human", "conditions": "other: wild-type GCPII, Table 2; 37.0 °C"}, "[11]": {"molecular_target": "T1, recombinant human GCPII (rhGCPII)", "conditions": "cited from earlier work"}, "[12]": {"tested_on": "rhGCPII", "conditions": "WT rhGCPII, radioenzymatic assay with 3H-NAAG; cited from earlier work"}, "[13]": {"conditions": "other: wild-type GCPII, Table 2"}, "[14]": {"conditions": "other: wild-type rhGCPII, Table 1"}},
  "note": "Values joined by “and” are separate entries in the source; they are usually repeats but may differ in a detail not shown here. Equal values may be shown once. Residues, ends and D or L forms follow the SMILES beside them.",
  "data": [
    {"compound": "CCCCCCCC(NC(=O)[C@H](CC(=O)O)NC(C)=O)C(=O)O", "note": "(some centres unmarked) [8S, Ac-Asp-Ano]", "values": [
      {"measurement": "efficiency of rhGCPII hydrolysis compared to Ac-Asp-Ala", "setting": "[1]", "value": "approximately 20 fold"},
      {"measurement": "stronger binding to K699S mutant compared to wild-type GCPII", "setting": "[2]", "value": "approximately 3 fold"}
    ]},
    {"compound": "recombinant human GCPII (rhGCPII) (Homo sapiens)", "values": [
      {"measurement": "Km", "setting": "[3]", "value": "85 ± 21", "unit": "µM"},
      {"measurement": "kcat", "setting": "[3]", "value": "0.23 ± 0.05", "unit": "s⁻¹"},
      {"measurement": "kcat/Km", "setting": "[3]", "value": 2700, "unit": "M⁻¹ s⁻¹"},
      {"measurement": "Km", "setting": "[4]", "value": "12 ± 1", "unit": "µM"},
      {"measurement": "kcat", "setting": "[4]", "value": "0.44 ± 0.04", "unit": "s⁻¹"},
      {"measurement": "kcat/Km", "setting": "[4]", "value": 36700, "unit": "M⁻¹ s⁻¹"},
      {"measurement": "Km", "setting": "[5]", "value": "8 ± 2", "unit": "µM"},
      {"measurement": "kcat", "setting": "[5]", "value": "0.6 ± 0.03", "unit": "s⁻¹"},
      {"measurement": "kcat/Km", "setting": "[5]", "value": 75000, "unit": "M⁻¹ s⁻¹"},
      {"measurement": "Km", "setting": "[6]; [13]", "value": "10.4 ± 2.5", "unit": "µM"},
      {"measurement": "kcat", "setting": "[6]; [13]", "value": "0.62 ± 0.10", "unit": "s⁻¹"},
      {"measurement": "kcat/Km", "setting": "[6]; [13]", "value": 59600, "unit": "M⁻¹ s⁻¹"},
      {"measurement": "Km", "setting": "[6]; [14]", "value": "10 ± 2", "unit": "µM"},
      {"measurement": "kcat", "setting": "[6]; [14]", "value": "0.62 ± 0.1", "unit": "s⁻¹"},
      {"measurement": "kcat/Km", "setting": "[6]; [14]", "value": 62000, "unit": "M⁻¹ s⁻¹"},
      {"measurement": "Km", "setting": "[7]", "value": "19 ± 4", "unit": "µM"},
      {"measurement": "kcat", "setting": "[7]", "value": "0.24 ± 0.01", "unit": "s⁻¹"},
      {"measurement": "kcat/Km", "setting": "[7]", "value": 12600, "unit": "M⁻¹ s⁻¹"},
      {"measurement": "Km", "setting": "[8]", "value": "31 ± 12", "unit": "µM"},
      {"measurement": "kcat", "setting": "[8]", "value": "0.42 ± 0.05", "unit": "s⁻¹"},
      {"measurement": "kcat/Km", "setting": "[8]", "value": 13500, "unit": "M⁻¹ s⁻¹"},
      {"measurement": "Km", "setting": "[9]", "value": "29 ± 8", "unit": "µM"},
      {"measurement": "kcat", "setting": "[9]", "value": "0.25 ± 0.03", "unit": "s⁻¹"},
      {"measurement": "kcat/Km", "setting": "[9]", "value": 8600, "unit": "M⁻¹ s⁻¹"},
      {"measurement": "Km", "setting": "[10]", "value": "7.5 ± 1.6", "unit": "µM"},
      {"measurement": "kcat", "setting": "[10]", "value": "0.32 ± 0.07", "unit": "s⁻¹"},
      {"measurement": "kcat/Km", "setting": "[10]", "value": 42700, "unit": "M⁻¹ s⁻¹"}
    ]},
    {"compound": "CSCC[C@H](NC(=O)[C@H](CC(=O)O)NC(C)=O)C(=O)O", "note": "[NAAM, N-acetyl-aspartyl-methionine] (Ac-Asp-Met-OH)", "values": [
      {"measurement": "Km", "setting": "[11]", "value": "24.8 ± 2.9", "unit": "µM"}
    ]},
    {"compound": "CC(=O)N[C@@H](CC(=O)O)C(=O)N[C@@H](CCC(=O)O)C(=O)O", "note": "[NAAG, N-acetyl-aspartyl-glutamate] (Ac-Asp-Glu-OH)", "values": [
      {"measurement": "Km", "setting": "[12]", "value": "1.2 ± 0.5", "unit": "µM"},
      {"measurement": "kcat", "setting": "[12]", "value": "1.1 ± 0.2 ^# s^-1 and 1.1 ± 0.2 ^* s^-1"}
    ]}
  ]
}
